Tests used:
[1] = biological target: T1, Biotinylated human IL13Rα2 (hIL13Rα2-avi) (human, UniProt Q14627 29-331, biotinylated in vivo on the Avi-tag by co-expressed BirA); assay: ELISA on coated human IL13Ra2, scFv in bacterial supernatant, anti-FLAG-HRP
T1 construct: Produced in Sf9 cells; native signal peptide (aa 1-28) exchanged for the gp67 signal peptide; 42.2 kDa; also called human IL13Rα2-avi; Human ILRα2-avi
T1 sequence: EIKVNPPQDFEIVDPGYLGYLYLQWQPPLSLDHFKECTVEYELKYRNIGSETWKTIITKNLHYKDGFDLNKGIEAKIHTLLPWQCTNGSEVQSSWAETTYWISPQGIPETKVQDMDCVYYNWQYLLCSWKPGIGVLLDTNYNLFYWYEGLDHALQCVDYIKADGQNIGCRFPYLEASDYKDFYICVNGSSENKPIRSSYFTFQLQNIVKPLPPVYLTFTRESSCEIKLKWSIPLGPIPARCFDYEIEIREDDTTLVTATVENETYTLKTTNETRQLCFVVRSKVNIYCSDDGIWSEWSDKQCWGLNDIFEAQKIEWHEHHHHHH
Description: (§1) Human IL13Rα2-avi (see Example A1), and negative control protein streptavidin were coated into a 384-ELISA well plate at 1 μg/ml in PBS at 4° C. overnight.
(§2) Plates were washed twice with MilliQ water and blocked for 2 h in blocking buffer (phosphate-buffered saline (PBS) supplemented with 0.5% bovine serum albumin (BSA)+0.05% TWEEN 20®). Triple-FLAG-tagged scFv 1E10B9 and mAb47, present in bacterial supernatant, were diluted 1:2, 1:20 and 1:200 in blocking buffer and allowed to bind. An assay control scFv (G-strep-1), specific for streptavidin, was also included. Detection of binding was enabled through an HRP-conjugated anti-FLAG M2 antibody (Sigma-Aldrich #A8592) followed by incubation with 1-step Ultra TMB ELISA substrate (ThermoFisher Scientific #34029). The colorimetric signal development was stopped by adding 1 M sulfuric acid and plates were read at 450 nm. All samples were assayed in duplicates.

streptavidin [2] = biological target: T2, streptavidin (UniProt P22629 37-163, limits assumed); assay: ELISA on coated streptavidin, scFv in bacterial supernatant, anti-FLAG-HRP
T2 construct: Negative control antigen; cognate antigen of G-strep-1 scFv; also called negative control protein streptavidin
T2 sequence (P22629 37-163 limits assumed): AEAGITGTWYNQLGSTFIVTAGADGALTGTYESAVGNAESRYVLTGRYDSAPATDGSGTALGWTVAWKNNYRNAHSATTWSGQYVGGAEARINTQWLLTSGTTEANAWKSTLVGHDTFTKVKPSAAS
Description: as §1, §2

streptavidin [3] = biological target: T2, streptavidin; assay: SPR: scFv captured on anti-FLAG M2, streptavidin injected
Description: An anti-FLAG M2 antibody (Sigma-Aldrich #F1804), functioning as a capture ligand, was immobilized onto all four surfaces of a CM5-S amine sensor chip through ECD/NHS chemistry on a BIACORE® T200 instrument (GE Healthcare) according to manufacturer's recommendations.
The surfaces were regenerated with 10 mM glycin-HCl pH 2.1. All experiments were performed at 25° C. in HBS supplemented with 0.05% TWEEN 20®, pH 7.5.

[4] = biological target: T3, Human IL13Rα1-Fc (hIL13Rα1-Fc, RnD Systems #146-IR) (human, UniProt P78552 27-342); assay: ELISA, coated hIL13Ra1-Fc, anti-FLAG-HRP
T3 construct: Bought; Fc part of the bought chimera not given
T3 sequence (looked up): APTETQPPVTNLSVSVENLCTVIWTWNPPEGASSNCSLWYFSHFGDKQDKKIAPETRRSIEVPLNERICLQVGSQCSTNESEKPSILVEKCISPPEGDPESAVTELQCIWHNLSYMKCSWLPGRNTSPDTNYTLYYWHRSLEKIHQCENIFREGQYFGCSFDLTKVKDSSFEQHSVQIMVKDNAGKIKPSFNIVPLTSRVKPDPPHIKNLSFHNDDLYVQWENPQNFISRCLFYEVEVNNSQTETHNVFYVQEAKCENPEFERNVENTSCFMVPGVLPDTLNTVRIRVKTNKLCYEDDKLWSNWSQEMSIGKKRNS
Description: Coating proteins hIL13Rα2-avi (Example A1), hIL13Rα2-Fc (RnD Systems #7147-IR), mIL13Rα2-Fc (RnD Systems #539-IR) and hIL13Rα1-Fc (RnD Systems #146-IR) were diluted to 1 μg/ml in PBS and directly coated into a 384-well ELISA plate. Two negative control proteins, streptavidin and a non-relevant protein, were also coated. Following incubation of plates with coating-proteins overnight at 4° C., plates were washed twice with MilliQ water and blocked for 2 h in blocking buffer (PBS supplemented with 0.5% BSA+0.05% TWEEN 20®). Triple-FLAG-tagged W-ME107 scFv clones present in bacterial supernatant were diluted 1:10 in blocking buffer and allowed to bind. Detection of binding was enabled through an HRP-conjugated anti-FLAG M2 antibody (Sigma-Aldrich #A8592) followed by incubation with 1-step Ultra TMB ELISA substrate (ThermoFisher Scientific #34029). The colorimetric-signal development was stopped by addition of 1 M sulfuric acid and plates were analyzed at […].

[5] = biological target: T4, Mouse IL13Rα2 Fc chimera (mIL13Rα2-Fc, RnD Systems #539-IR) (mouse, UniProt O88786 22-334); assay: SPR single cycle kinetics, scFv captured
T4 construct: range 22-334; Bought; produced in NS0 cells; homodimer through Fc fusion; also called mILRα2-Fc; Mouse ILRα2-Fc; Fc part of the bought chimera not given
T4 sequence (looked up): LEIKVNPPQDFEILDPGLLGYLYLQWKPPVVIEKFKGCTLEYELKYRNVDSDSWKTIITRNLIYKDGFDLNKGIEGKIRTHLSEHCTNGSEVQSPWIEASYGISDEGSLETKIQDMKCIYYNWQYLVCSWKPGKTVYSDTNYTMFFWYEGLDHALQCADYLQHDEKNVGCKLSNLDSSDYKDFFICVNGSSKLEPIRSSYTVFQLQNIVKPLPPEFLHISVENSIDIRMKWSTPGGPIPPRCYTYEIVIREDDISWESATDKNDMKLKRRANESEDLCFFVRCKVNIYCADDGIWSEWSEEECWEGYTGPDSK
Source text: (§3) An anti-FLAG M2 antibody (Sigma-Aldrich #F1804), functioning as a capture ligand was immobilized onto all four surfaces of a CM5-S amine sensor chip on a BIACORE® T200 instrument (GE Healthcare) according to manufacturer's recommendations.

[6] = biological target: T1, Biotinylated human IL13Rα2 …; assay: SPR single cycle kinetics, scFv captured
Source text: as §3

[7] = biological target: T5, Human IL13Rα2 Fc chimera (hIL13Rα2-Fc, RnD Systems #7147-IR) (human, UniProt Q14627 22-342); assay: SPR single cycle kinetics, scFv captured
T5 construct: Bought; produced in CHO cells; homodimer through Fc fusion; also called hILRα2-Fc; Human ILRα2-Fc; not shown: Fc part (and any linker) of the bought chimera
T5 sequence: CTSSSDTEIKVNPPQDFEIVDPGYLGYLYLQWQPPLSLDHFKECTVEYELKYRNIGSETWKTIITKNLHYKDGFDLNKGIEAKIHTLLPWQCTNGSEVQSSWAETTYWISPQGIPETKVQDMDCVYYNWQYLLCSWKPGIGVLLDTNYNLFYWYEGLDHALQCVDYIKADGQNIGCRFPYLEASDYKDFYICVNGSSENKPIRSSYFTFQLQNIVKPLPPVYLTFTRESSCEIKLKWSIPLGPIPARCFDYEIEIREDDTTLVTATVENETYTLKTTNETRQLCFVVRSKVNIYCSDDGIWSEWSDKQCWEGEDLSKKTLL
Source text: as §3

Binder | binding result [1] | binding result (streptavidin [2]) | binding result (streptavidin [3]) | binding result [4] | Kd [5] | koff [5] | kon [5] | Kd [6] | koff [6] | kon [6] | Kd [7] | koff [7] | kon [7]
1E10B9 scFv (scFv, also called X-ME107-B9) scFv: QIQLVQSGPELKKPGETVKIYCKASGYSFRDYSVHWVKQAPGKGLKWMGWINTETGEPTYVDEFKGRFAFFLEASANTVYLQISNLKNEDTATYFCDYRFTYWGQGTLVTVSAGGGGSGGGGSGGGGSEIVMTQTPLILSVTIGQPASISCKSSQSVLYSNGKTYLNWLLQRPGQSPKRLIYLVSKLDSGVPDRFTGSGSGTDFTLKISRVEAEDLGVYYCVQGSHFPYTFGGGTKLEIKAAADYKDHDGDYKDHDIDYKDDDDKAAAHHHHHH | no binding (tested: supernatant diluted 1:2) | no binding (tested: supernatant diluted 1:2) |  |  |  |  |  |  |  |  |  |  | 
W-ME107-27 scFv (scFv, V domains shown, Human scFv from SciLifeLib phage libraries) VH: EVQLLESGGGLVQPGGSLRLSCAASGFTFYGSYMGWVRQAPGKGLEWVSYISGYGGYTYYADSVKGRFTISRDNSKNTLYLQMNSLRAEDTAVYYCARTPYSAYIDYWGQGTLVTVSS VL: not shown |  |  | no binding (tested: 200 nM) | no binding (tested: supernatant diluted 1:10) | 2.4 nM | 0.00019 s⁻¹ | 80000 M⁻¹ s⁻¹ | 3.1 nM | 0.00022 s⁻¹ | 69000 M⁻¹ s⁻¹ |  |  | 
W-ME107-10 scFv (scFv, V domains shown, Human scFv from SciLifeLib phage libraries) VH: not shown VL: DIQMTQSPSSLSASVGDRVTITCRASQSISSYLNWYQQKPGKAPKLLIYAASSLQSGVPSRFSGSGSGTDFTLTISSLQPEDFATYYCQQDYYLFTFGQGTKLEIK |  |  | no binding (tested: 200 nM) | no binding (tested: supernatant diluted 1:10) | 45 nM | 0.0018 s⁻¹ | 40000 M⁻¹ s⁻¹ | 3.4 nM | 0.00017 s⁻¹ | 51000 M⁻¹ s⁻¹ |  |  | 
W-ME107-117 scFv (scFv, V domains shown) VH: EVQLLESGGGLVQPGGSLRLSCAASGFTFSGSYMSWVRQAPGKGLEWVSSIYGSGGYTYYADSVKGRFTISRDNSKNTLYLQMNSLRAEDTAVYYCARYSPFYMDYWGQGTLVTVSS VL: not shown |  |  |  |  |  |  |  | 22 nM | 0.0033 s⁻¹ | 150000 M⁻¹ s⁻¹ | 7.8 nM | 0.00035 s⁻¹ | 45000 M⁻¹ s⁻¹
W-ME107-75 scFv (scFv, V domains shown, Human scFv from SciLifeLib phage libraries) VH: EVQLLESGGGLVQPGGSLRLSCAASGFTFYSYGMSWVRQAPGKGLEWVSYISGGGSYTYYADSVKGRFTISRDNSKNTLYLQMNSLRAEDTAVYYCARGSYSHYGAHYLDYWGQGTLVTVSS VL: DIQMTQSPSSLSASVGDRVTITCRASQSISSYLNWYQQKPGKAPKLLIYAASSLQSGVPSRFSGSGSGTDFTLTISSLQPEDFATYYCQQALSSLPTFGQGTKLEIK |  |  | no binding (tested: 200 nM) | no binding (tested: supernatant diluted 1:10) | 80 nM | 0.0036 s⁻¹ | 45000 M⁻¹ s⁻¹ | 36 nM | 0.0079 s⁻¹ | 220000 M⁻¹ s⁻¹ | 5.4 nM | 0.00026 s⁻¹ | 48000 M⁻¹ s⁻¹

Reference: patent publication US20230183364A1 (ELICERA THERAPEUTICS, published 2023)
